Assay results taken from patent publication US20240352121A1, “LAIR-1 AGONISTIC ANTIBODIES AND METHODS OF USE THEREOF” (NEXTCURE, INC., priority 2023, published 2024).

How the values were obtained:
MV4-11-Luc cells = experiment: In-vitro phagocytosis (ADCP) assay, mouse bone marrow macrophages with MV4-11-Luc cells; format: cell-based, human; settings: 20 μg/ml, 16 hours
Procedure: Mouse BMM was generated with 100 ng/ml M-CSF (Cat #416-ML-500) using seed BMM cells at 1e5/well in 24 well plate. Stain was done with Cell trace violet (Thermofisher). Target MV411 cells were labeled with PKH26 (Sigma #PKH26gl-1kt) according to manufacturer's instructions and cocultured with BMM at ratio of 5:1 in presence of 20 μg/ml h11B3 or control antibody for 16 hours. Phagocytosis was analyzed by flow cytometry.

[1] = tested on: bone-marrow cells from healthy control donors; format: cell-based, human
Procedure: Cryopreserved AML bone-marrow cells or healthy donor CD34 cells were thawed and plated in 96 wells plates. Cells were engaged with the indicated concentrations of LAIR-1 mAb or isotype control for 30 min at room temperature. Subsequently, cells were diluted in IMDM with 2% FBS and mixed with semisolid methylcellulose-based medium (MethoCult H4435 Enriched, StemCell Technologies, Vancouver, Canada) which contains human cytokines (stem cell factor, IL-3, IL-6, EPO, G-CSF, GM-CSF). Then, between 1e4 and 2.5e5 LSCs, or, between 1e3 and 5e3 healthy donor CD34 cells per well were plated on 6-well SmartDishes (StemCell Technologies, Vancouver, Canada). The cell-loaded plates were incubated at 37° C. with 5% CO2 in air and ≥95% humidity. On day 14, colony formation was counted by STEMvision (StemCell Technologies, Vancouver, Canada), an automated and standardized colony counting instrument. The automated results were confirmed and edited manually by the STEMvision Colony Marker software.

[2] = tested on: healthy human primary immune cells; experiment: Effect on healthy human immune cells in mice reconstituted with human CD34 cells; format: in vivo, NSG-SGM3 mice
Procedure: NSG-SGM3 mice were purchased from Jackson Laboratory. Mice were engrafted with CD34+ cord blood cells donor #2523. Mice treated weekly beginning 18 weeks after engraftment with anti-human LAIR-1 mAb clone 11B3 in human G1 or G4P format, or control at 100 μg/mouse (5 mg/kg) for 4 weeks. Bleed at weeks 2 (1 day prior to 2nd dose) and 4 (one day prior to 4th dose) for circulating immune cells. Mice were sacrificed 1 week after final dose for analysis of spleen, LN and bone marrow. FIGS. 35A-35B show total body weight and survival of NSG-SGM3 mice reconstituted with human CD34+ cord blood cells and treated 11B3 antibodies. FIGS. 35C-35G show time-course follow-up of the changes in the immune cell numbers in the blood collected from NSG-SGM3 reconstituted with human CD34+ cord blood cells. FIGS. 35H-35I show Analysis of immune cell numbers in the spleen and bone marrow collected from NSG-SGM3 reconstituted with human CD34+ cord blood cells.
For assessment of mAb impacts on normal human immune cells, NSG-SGM3-CD34^+ fully engrafted humanized mice (>25% human CD45+ leukocytes in circulation) were purchased from Jackson Laboratory (stock #2523, Bar Harbor, ME). […] Absolute numbers of cell subpopulations were calculated, as well as percentages of each population subset as a percentage of total CD45^+ cells and total leukocyte gate.

MV4-11 cells = experiment: Phospho-array on in vivo grown MV4-11 cells, subcutaneous CDX model; set-up: species or system NSG mice; settings: 10 mg/kg weekly i.p.
Procedure: NSG mice were injected with 2e6 THP-1 luciferase cells or 2e6 MV4-11-luciferase cells via tail vein injection. Leukemia progression was quantified by i.p. injection of 100 μL bioluminescent substrate and IVIS imaging 8 minutes post injection. Progression was assessed weekly staring on Day 7 post-challenge. 10 mg/kg mab treatment was performed by i.p injection starting on day 8 and continuing twice a week until the end of the study. For the subcutaneous engraftment model, NSG mice were subcutaneously injected on the right flank with 5e6 MV4-11-Luc-LAIR-1^OE cells. Mice were treated by weekly i.p. injection of 10 mg/kg mAb. Tumor growth was measured by calipers twice weekly until end point.

B1: LAIR-1 mAb: humanized agonist anti-LAIR-1 mAb, IgG1 backbone; h11B3 VL-2 (SEQ ID NO: 16), h11B3 VH-3 (SEQ ID NO: 27) (antibody, V domains shown)
VH: EVQLVESGGGLVQPGGSLKLSCAASGFTFNTNAMYWVRQAPGKGLEWVGRIRSKSSNYATYYAASVKGRFTISRDDSKNTLYLQMNSLKTEDTAVYYCVRGGSGFFAYWGQGTLVTVSS
VL: DIQMTQSPSSLSASLGDRVTITCKASEDIYIRLAWYQQKPGKAPRLLISTATSLETGVPSRFSGSGSGTDYTFTISSLQPEDIATYYCQQYWSTPYTFGGGTRLEIK
modifications: IgG1 constant regions; Synthetic: h11B3 VH-3; Synthetic: h11B3 VL-2
- ADCP activity (MV4-11-Luc cells): induces ADCP activity
- CFU formation [1]: no change
- depletion, inhibition, or expansion of healthy human primary immune cells ([2]; 100 μg/mouse (5 mg/kg) weekly for 4 weeks): no depletion, inhibition, or expansion
- effects on healthy immune cells in the spleen or the bone-marrow ([2]; NSG mice reconstituted with healthy human CD34 stem cells): minimal effects
- MAPK pathway (MV4-11 cells): significantly suppressed
- activation of mTORC, AKT, and NF-kB (MV4-11 cells): inhibited activation
